Data reported in patent US20200270325A1 (Merck Sharp & Dohme, published 2020).
Numbered stars: 1 amine (or outer) side, 2 acyl side, 3 side chain; on linkers, the order of the positions; unused ones are H or OH. Square brackets hold non-standard residues; d marks the D form. Side chains are listed from the residue outwards. Ends that are not written are not given here. * marks the point of attachment. C18 diacid = O=C(O)CCCCCCCCCCCCCCCCC(=O)*; C16 diacid = O=C(O)CCCCCCCCCCCCCCC(=O)*; γGlu = O=C(O)[C@H](CCC(=O)[*:2])N[*:1]; Met(O2) = CS(=O)(=O)CC[C@H](N)C(=O)O; αMeD = C[C@](N)(CC(=O)O)C(=O)O; αMeS = C[C@](N)(CO)C(=O)O; AEEA = NCCOCCOCC(=O)O; Aib = CC(C)(N)C(=O)O

B1: TP613 (peptide)
peptide: H[Aib]QGTFTSDYSKYLDERAAK([AEEA-AEEA-γGlu-C18 diacid])DFVQWL[Met(O2)][αMeD]T-NH2
modifications: N-terminus assumed
SMILES: CC(C)C[C@H](NC(=O)[C@H](Cc1ccc(O)cc1)NC(=O)[C@H](CCCCN)NC(=O)[C@H](CO)NC(=O)[C@H](Cc1ccc(O)cc1)NC(=O)[C@H](CC(=O)O)NC(=O)[C@H](CO)NC(=O)[C@@H](NC(=O)[C@H](Cc1ccccc1)NC(=O)[C@@H](NC(=O)CNC(=O)[C@H](CCC(N)=O)NC(=O)C(C)(C)NC(=O)[C@@H](N)Cc1c[nH]cn1)[C@@H](C)O)[C@@H](C)O)C(=O)N[C@@H](CC(=O)O)C(=O)N[C@@H](CCC(=O)O)C(=O)N[C@@H](CCCNC(=N)N)C(=O)N[C@@H](C)C(=O)N[C@@H](C)C(=O)N[C@@H](CCCCNC(=O)COCCOCCNC(=O)COCCOCCNC(=O)CC[C@H](NC(=O)CCCCCCCCCCCCCCCCC(=O)O)C(=O)O)C(=O)N[C@@H](CC(=O)O)C(=O)N[C@@H](Cc1ccccc1)C(=O)N[C@H](C(=O)N[C@@H](CCC(N)=O)C(=O)N[C@@H](Cc1c[nH]c2ccccc12)C(=O)N[C@@H](CC(C)C)C(=O)N[C@@H](CCS(C)(=O)=O)C(=O)N[C@@](C)(CC(=O)O)C(=O)N[C@H](C(N)=O)[C@@H](C)O)C(C)C
B2: TP615 (peptide)
peptide: H[αMeS]QGTFTSDYSKYLDARAAQK([AEEA-AEEA-γGlu-C16 diacid])FVQWL[Met(O2)][αMeD]T-NH2
modifications: N-terminus assumed
SMILES: CC(C)C[C@H](NC(=O)[C@H](Cc1ccc(O)cc1)NC(=O)[C@H](CCCCN)NC(=O)[C@H](CO)NC(=O)[C@H](Cc1ccc(O)cc1)NC(=O)[C@H](CC(=O)O)NC(=O)[C@H](CO)NC(=O)[C@@H](NC(=O)[C@H](Cc1ccccc1)NC(=O)[C@@H](NC(=O)CNC(=O)[C@H](CCC(N)=O)NC(=O)[C@](C)(CO)NC(=O)[C@@H](N)Cc1c[nH]cn1)[C@@H](C)O)[C@@H](C)O)C(=O)N[C@@H](CC(=O)O)C(=O)N[C@@H](C)C(=O)N[C@@H](CCCNC(=N)N)C(=O)N[C@@H](C)C(=O)N[C@@H](C)C(=O)N[C@@H](CCC(N)=O)C(=O)N[C@@H](CCCCNC(=O)COCCOCCNC(=O)COCCOCCNC(=O)CC[C@H](NC(=O)CCCCCCCCCCCCCCC(=O)O)C(=O)O)C(=O)N[C@@H](Cc1ccccc1)C(=O)N[C@H](C(=O)N[C@@H](CCC(N)=O)C(=O)N[C@@H](Cc1c[nH]c2ccccc12)C(=O)N[C@@H](CC(C)C)C(=O)N[C@@H](CCS(C)(=O)=O)C(=O)N[C@@](C)(CC(=O)O)C(=O)N[C@H](C(N)=O)[C@@H](C)O)C(C)C
B3: TP614 (peptide)
peptide: H[αMeS]QGTFTSDYSKYLDARAAK([AEEA-AEEA-γGlu-C16 diacid])DFVQWL[Met(O2)][αMeD]T-NH2
modifications: N-terminus assumed
SMILES: CC(C)C[C@H](NC(=O)[C@H](Cc1ccc(O)cc1)NC(=O)[C@H](CCCCN)NC(=O)[C@H](CO)NC(=O)[C@H](Cc1ccc(O)cc1)NC(=O)[C@H](CC(=O)O)NC(=O)[C@H](CO)NC(=O)[C@@H](NC(=O)[C@H](Cc1ccccc1)NC(=O)[C@@H](NC(=O)CNC(=O)[C@H](CCC(N)=O)NC(=O)[C@](C)(CO)NC(=O)[C@@H](N)Cc1c[nH]cn1)[C@@H](C)O)[C@@H](C)O)C(=O)N[C@@H](CC(=O)O)C(=O)N[C@@H](C)C(=O)N[C@@H](CCCNC(=N)N)C(=O)N[C@@H](C)C(=O)N[C@@H](C)C(=O)N[C@@H](CCCCNC(=O)COCCOCCNC(=O)COCCOCCNC(=O)CC[C@H](NC(=O)CCCCCCCCCCCCCCC(=O)O)C(=O)O)C(=O)N[C@@H](CC(=O)O)C(=O)N[C@@H](Cc1ccccc1)C(=O)N[C@H](C(=O)N[C@@H](CCC(N)=O)C(=O)N[C@@H](Cc1c[nH]c2ccccc12)C(=O)N[C@@H](CC(C)C)C(=O)N[C@@H](CCS(C)(=O)=O)C(=O)N[C@@](C)(CC(=O)O)C(=O)N[C@H](C(N)=O)[C@@H](C)O)C(C)C

Biological target: human GLP-1 receptor (GLP1R) (human, UniProt P43220 24-463)
Assay: cell-based or functional assay

Row | Binder | GLP1R EC50 human
1 | B1 | 3.34 nM
2 | B2 | 0.4 nM
3 | B3 | 1.4 nM

Biological target: human Glucagon receptor (GCGR) (human, UniProt P47871 26-477)
Sequence (P47871 26-477): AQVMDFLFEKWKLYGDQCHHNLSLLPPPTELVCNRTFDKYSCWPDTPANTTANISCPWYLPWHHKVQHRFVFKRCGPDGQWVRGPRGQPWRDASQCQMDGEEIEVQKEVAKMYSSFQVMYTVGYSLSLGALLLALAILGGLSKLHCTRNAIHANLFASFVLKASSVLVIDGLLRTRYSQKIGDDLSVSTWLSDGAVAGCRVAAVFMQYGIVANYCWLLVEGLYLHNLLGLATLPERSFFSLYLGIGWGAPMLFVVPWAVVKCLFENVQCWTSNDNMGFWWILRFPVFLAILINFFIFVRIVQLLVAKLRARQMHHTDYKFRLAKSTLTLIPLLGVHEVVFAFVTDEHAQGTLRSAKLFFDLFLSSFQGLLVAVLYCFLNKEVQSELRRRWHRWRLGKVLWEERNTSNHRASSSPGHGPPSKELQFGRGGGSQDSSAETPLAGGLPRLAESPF
Assay: cell-based or functional assay

Row | Binder | GCGR EC50 human
4 | B1 | > 5 nM
5 | B2 | 0.26 nM
6 | B3 | 0.86 nM
